# Reference: PMC7354924
# Legend:
# [1] = target: growth differentiation factor 5 (GDF5), wild type (human) (UniProt P43026); test: SPR; GDF5 wild type (500 RU), Arg438Ala (702 RU) or Arg438Leu (977 RU) amine-coupled to a GLC sensor chip; RGMECD proteins from FreeStyle 293 cells as analytes, six concentrations (log2 series from 40, 30, 20 or 10 nM), 100 µl/min; 20 mM HEPES pH 7.4, 500 mM NaCl, 3.4 mM EDTA, 0.005% (v/v) Tween 20; kon and koff fitted globally, Kd = koff/kon; two independent experiments; apparent
# Chain of growth differentiation factor 5 (GDF5), wild type (human) (P43026 28-501): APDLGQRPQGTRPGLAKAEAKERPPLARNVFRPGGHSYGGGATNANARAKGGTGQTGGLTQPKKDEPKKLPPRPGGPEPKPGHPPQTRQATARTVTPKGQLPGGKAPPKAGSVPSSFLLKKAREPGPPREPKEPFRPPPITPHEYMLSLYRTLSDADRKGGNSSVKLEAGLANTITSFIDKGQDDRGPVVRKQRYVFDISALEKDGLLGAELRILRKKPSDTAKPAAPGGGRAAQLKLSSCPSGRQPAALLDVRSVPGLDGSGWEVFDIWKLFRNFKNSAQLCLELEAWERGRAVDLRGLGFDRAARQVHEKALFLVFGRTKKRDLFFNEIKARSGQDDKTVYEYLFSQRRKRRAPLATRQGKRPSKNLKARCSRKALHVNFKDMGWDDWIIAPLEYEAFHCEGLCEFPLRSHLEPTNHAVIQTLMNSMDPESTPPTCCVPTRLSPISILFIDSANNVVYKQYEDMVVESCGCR
# [2] = target: GDF5 variant Arg438Leu (human) (UniProt P43026); test: as above
# Chain of GDF5 variant Arg438Leu (human) (P43026 28-501 R438L): as the sequence (P43026 28-501) above, with R411L counted along it
# [3] = target: GDF5 variant Arg438Ala (human) (UniProt P43026); test: as above
# Chain of GDF5 variant Arg438Ala (human) (P43026 28-501 R438A): as the sequence (P43026 28-501) above, with R411A counted along it
# [4] = target: bone morphogenetic protein 2 (BMP2) (human) (UniProt P12643); test: SPR; ProteOn XPR36; BMP2 (570 RU) or GDF5 (470 RU) amine-coupled to a GLC sensor chip; ActR2b ectodomain perfused at 6 µM to 187.5 nM, 100 µl/min; 0.005% (v/v) Tween 20 buffer; Kd from the dose-dependency of equilibrium binding, one-site model; apparent
# Chain of bone morphogenetic protein 2 (BMP2) (human) (P12643 24-396): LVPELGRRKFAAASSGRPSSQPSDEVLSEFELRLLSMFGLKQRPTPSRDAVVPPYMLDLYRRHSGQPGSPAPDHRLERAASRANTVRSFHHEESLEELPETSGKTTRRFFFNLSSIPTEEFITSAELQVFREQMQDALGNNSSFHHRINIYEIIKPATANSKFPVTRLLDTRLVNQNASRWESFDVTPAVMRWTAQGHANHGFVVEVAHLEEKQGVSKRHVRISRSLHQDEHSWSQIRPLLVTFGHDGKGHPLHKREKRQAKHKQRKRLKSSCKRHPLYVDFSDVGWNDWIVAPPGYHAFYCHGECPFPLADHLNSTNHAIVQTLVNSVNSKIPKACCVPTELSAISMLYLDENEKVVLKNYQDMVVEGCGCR
# [5] = target: growth differentiation factor 5 (GDF5), wild type (human) (UniProt P43026)
# [6] = target: bone morphogenetic protein 2 (BMP2) (human) (UniProt P12643)
# [7] = target: growth differentiation factor 5 (GDF5), wild type (human) (UniProt P43026); test: SPR; ProteOn XPR36; BMP2 (570 RU), GDF5 (470 RU), TGF-β2 (300 RU) or activin A (350 RU) amine-coupled to a GLC sensor chip; analyte perfused (RGMB 50 to 1.56 nM at 150 or 100 µl/min; BMPR1A 1000 to 31.25 nM at 100 µl/min); 20 mM HEPES pH 7.4, 500 mM NaCl, 3.4 mM EDTA, 0.005% (v/v) Tween 20; 25 °C; Langmuir 1:1 kinetic fit (parameters local for RGMB), Kd = koff/kon; apparent
# [8] = target: bone morphogenetic protein 2 (BMP2) (human) (UniProt P12643); test: as above
# [9] = target: GDF5 variant Tyr487Lys/Gln489Asp (UniProt P43026); test: SEC-MALS; RGMBND–GDF5(Tyr487Lys/Gln489Asp)–ActR2bECD complex, 1 mg/mL, Superdex 200 HR 10/30, 0.5 M NaCl, 20 mM Hepes pH 7.4, 21 °C
# Chain of GDF5 variant Tyr487Lys/Gln489Asp (P43026 28-501 Y487K/Q489D): as the sequence (P43026 28-501) above, with Y460K, Q462D counted along it
Binder,Kd [1] [nM],koff [1] [s⁻¹],kon [1] [M⁻¹ s⁻¹],Kd [2] [nM],koff [2] [s⁻¹],kon [2] [M⁻¹ s⁻¹],Kd [3] [nM],koff [3] [s⁻¹],kon [3] [M⁻¹ s⁻¹],other results
full-length extracellular domain of RGMA (Cys48-Arg423) from FreeStyle 293 cells (domain or fragment) CKILKCNSEFWSATSGSHAPASDDTPEFCAALRSYALCTRRTARTCRGDLAYHSAVHGIEDLMSQHNCSKDGPTSQPRLRTLPPAGDSQERSDSPEICHYEKSFHKHSATPNYTHCGLFGDPHLRTFTDRFQTCKVQGAWPLIDNNYLNVQVTNTPVLPGSAATATSKLTIIFKNFQECVDQKVYQAEMDELPAAFVDGSKNGGDKHGANSLKITEKVSGQHVEIQAKYIGTTIVVRQVGRYLTFAVRMPEEVVNAVEDWDSQGLYLCLRGCPLNQQIDFQAFHTNAEGTGARRLAAASPAPTAPETFPYETAVAKCKEKLPVEDLYYQACVFDLLTTGDVNFTLAAYYALEDVKMLHSNKDKLHLYERTRDLPGR,1.3,0.00052,420000,1.4,0.00042,300000,1.7,0.00045,270000,–
full-length extracellular domain of RGMC (Gln36-Asp400) from FreeStyle 293 cells (domain or fragment) QCKILRCNAEYVSSTLSLRGGGSSGALRGGGGGGRGGGVGSGGLCRALRSYALCTRRTARTCRGDLAFHSAVHGIEDLMIQHNCSRQGPTAPPPPRGPALPGAGSGLPAPDPCDYEGRFSRLHGRPPGFLHCASFGDPHVRSFHHHFHTCRVQGAWPLLDNDFLFVQATSSPMALGANATATRKLTIIFKNMQECIDQKVYQAEVDNLPVAFEDGSINGGDRPGGSSLSIQTANPGNHVEIQAAYIGTTIIIRQTAGQLSFSIKVAEDVAMAFSAEQDLQLCVGGCPPSQRLSRSERNRRGAITIDTARRLCKEGLPVEDAYFHSCVFDVLISGDPNFTVAAQAALEDARAFLPDLEKLHLFPSD,2.8,0.00064,240000,2.2,0.00041,190000,2.3,0.00026,160000,–
"murine activin type-2 receptor ActR2b, soluble ectodomain (residues Gly20 to Glu127) (receptor) GRGEAETRECIYYNANWELERTNQSGLERCEGEQDKRLHCYASWRNSSGTIELVKKGCWLDDFNCYDRQECVATEENPQVYFCCCEGNFCNERFTHLPEPGGPEVTYE",–,–,–,–,–,–,–,–,–,Kd [4]: 2700 nM
soluble mature RGMB (Gln49-Gly412) produced in insect cells (domain or fragment) QQPAQCRIQKCTTDFVSLTSHLNSAVDGFDSEFCKALRAYAGCTQRTSKACRGNLVYHSAVLGISDLMSQRNCSKDGPTSSTNPEVTHDPCNYHSHAGAREHRRGDQNPPSYLFCGLFGDPHLRTFKDNFQTCKVEGAWPLIDNNYLSVQVTNVPVVPGSSATATNKITIIFKAHHECTDQKVYQAVTDDLPAAFVDGTTSGGDSDAKSLRIVERESGHYVEMHARYIGTTVFVRQVGRYLTLAIRMPEDLAMSYEESQDLQLCVNGCPLSERIDDGQGQVSAILGHSLPRTSLVQAWPGYTLETANTQCHEKMPVKDIYFQSCVFDLLTTGDANFTAAAHSALEDVEALHPRKERWHIFPSSG,–,–,–,–,–,–,–,–,–,"Fig. S3D: IC50 of soluble RGMB for inhibition of GDF5 (20 nM)-induced alkaline phosphatase expression in ATDC5 cells [5]: 166 nM; Fig. S3D: inhibitory constant Ki of soluble RGMB (from EC50 and IC50) for GDF5-induced alkaline phosphatase expression in ATDC5 cells [5]: 85 nM; Fig. S3H: IC50 of soluble RGMB for inhibition of GDF5 (10 nM)-induced SMAD signaling (BRE-Luc reporter) in C3H10T1/2 cells [5]: 47 nM; Fig. S3C: IC50 of soluble RGMB for inhibition of BMP2 (10 nM)-induced alkaline phosphatase expression in ATDC5 cells [6]: > 1500 nM; Fig. S3C: inhibitory constant Ki of soluble RGMB (Cheng-Prusoff, from EC50 and IC50) for BMP2-induced alkaline phosphatase expression in ATDC5 cells [6]: > 500 nM; Fig. S3G: IC50 of soluble RGMB for inhibition of BMP2 (10 nM)-induced SMAD signaling (BRE-Luc reporter) in C3H10T1/2 cells [6]: 41 nM; koff [7]: 0.0025 s⁻¹; kon [7]: 1.8e+06 M⁻¹ s⁻¹; koff [8]: 0.011 s⁻¹; kon [8]: 5.3e+06 M⁻¹ s⁻¹"
full-length extracellular domain of RGMB (Gln49-Gly412) from FreeStyle 293 cells (domain or fragment) QQPAQCRIQKCTTDFVSLTSHLNSAVDGFDSEFCKALRAYAGCTQRTSKACRGNLVYHSAVLGISDLMSQRNCSKDGPTSSTNPEVTHDPCNYHSHAGAREHRRGDQNPPSYLFCGLFGDPHLRTFKDNFQTCKVEGAWPLIDNNYLSVQVTNVPVVPGSSATATNKITIIFKAHHECTDQKVYQAVTDDLPAAFVDGTTSGGDSDAKSLRIVERESGHYVEMHARYIGTTVFVRQVGRYLTLAIRMPEDLAMSYEESQDLQLCVNGCPLSERIDDGQGQVSAILGHSLPRTSLVQAWPGYTLETANTQCHEKMPVKDIYFQSCVFDLLTTGDANFTAAAHSALEDVEALHPRKERWHIFPSSG,3.7,0.0016,420000,1.1,0.0011,1e+06,1.5,0.0015,1e+06,–
ActR2b extracellular domain (ActR2bECD) (receptor) SGRGEAETRECIYYNANWELERTNQSGLERCEGEQDKRLHCYASWRNSSGTIELVKKGCWLDDFNCYDRQECVATEENPQVYFCCCEGNFCNERFTHLPEAGGPEVTYEPPPTAPTLLT,–,–,–,–,–,–,–,–,–,stoichiometry N (ActR2b per GDF5 dimer (2:2:2 by chains)) [9]: 2
